From PMC4866589

Substrate: Nc1ncnc2c1ncn2[C@@H]1O[C@H](COP(=O)(O)OP(=O)(O)OP(=O)(O)O)[C@@H](O)[C@H]1O
Test: ATP Km by microfluidic mobility shift kinase assay
Assay type: biochemical, Homo sapiens
Conditions: Mg2+ ([…] MgCl2 in the assay buffer)

B1: hTSSK2 (testis-specific serine/threonine kinase 2) (Homo sapiens) (protein)
chain: MDDATVLRKKGYIVGINLGKGSYAKVKSAYSERLKFNVAVKIIDRKKTPTDFVERFLPREMDILATVNHGSIIKTYEIFETSDGRIYIIMELGVQGDLLEFIKCQGALHEDVARKMFRQLSSAVKYCHDLDIVHRDLKCENLLLDKDFNIKLSDFGFSKRCLRDSNGRIILSKTFCGSAAYAAPEVLQSIPYQPKVYDIWSLGVILYIMVCGSMPYDDSDIRKMLRIQKEHRVDFPRSKNLTCECKDLIYRMLQPDVSQRLHIDEILSHSWLQPPKPKATSSASFKREGEGKYRAECKLDTKTGLRPDHRPDHKLGAKTQHRLLVVPENENRMEDRLAETSRAKDHHISGAEVGKAST
Question: Which Km does the source give for B1 here?
Answer: Its Km is 2.17 ± 0.04 µM.
